This is an account of results in publication PMC10776578, “Epstein-Barr virus-driven B cell lymphoma mediated by a direct LMP1-TRAF6 complex” (Nature Communications, 2024).

The test system of the assay is GST-RANK314-355. The assay can be described thus: AlphaScreen PPI, TRAF6 mutants binding to RANK. Details: species or system human. Conditions: for effect of TRAF6 mutation on binding to RANK (in words): AlphaScreen PPI; for TRAF6 binding to RANK (AlphaScreen), mean / TRAF6 binding to RANK (AlphaScreen): Figure 2c; for TRAF6 binding to RANK (AlphaScreen), mean: mean of n = 4. As to the method:
Fig. 2 LMP1 binds to the receptor-interacting surface of TRAF6. a Mutations within the receptor-interacting surface of TRAF6 affect binding to LMP1. The TRAF6 mutants R392A, K469A, F471A, and Y473A were tested LMP1 in AlphaScreen PPI experiments with GST-LMP1_181-386. Data are mean values ± SD of three independent experiments. Statistics: one-way ANOVA. b TRAF6 R392A differentiates between CD40 and LMP1/RANK. AlphaScreen PPI experiments with GST-CD40_216-277. Data are mean values ± SD of three independent experiments. […] AlphaScreen PPI experiments with GST-RANK314-355. Data are mean values ± SD of four independent experiments. Statistics: one-way ANOVA. d TRAF6 mutants that fail to interact with LMP1 in PPI assays are also unable to bind cellular LMP1. HEK293 cells were co-transfected with HA-LMP1 and the indicated Flag-TRAF6 mutants. Flag-TRAF6 was immunoprecipitated (IP) via its Flag-tag and coprecipitated HA-LMP1 was detected on immunoblots by an α-HA antibody. Uncropped blots in Supplementary Fig. 6b. For statistical analysis LMP1 signals were digitalized and quantified (graph). Data are mean values ± SD of three independent experiments. […] TRAF6 recruitment is dependent on amino acids 371 − 386 of LMP1 (small panel). Confocal microscopy images show representative cells of three independent experiments. Quantitative data are mean values ± SD of ten randomly selected cells per transfection of one representative experiment (graph). Scale bars: 10 µm. Statistics: one-way ANOVA. p-values: *p ≤ 0.05, **p ≤ 0.01, ***p ≤ 0.001, ****p ≤ 0.0001. Source data and exact p-values in the Source Data file.
AlphaScreen experiments were performed in 96- or 384-well plates (Perkin Elmer, OptiPlate). In both assay formats, His-TRAF and GST-LMP1, GST-CD40, or GST-RANK proteins were incubated together in 40 µL of PBS (protein concentrations were calculated to the final reaction volume of 60 µL) supplemented with 0.5% BSA (Sigma, #A7030) and 0.1% Tween-20 (AppliChem, #A4974), for 1 h at room temperature (RT). If not indicated otherwise, standard protein concentrations were 300 nM for His-TRAF proteins and 100 nM for GST-LMP1 proteins. Ni-NTA-acceptor (Perkin Elmer, #6760619 C) and GST-acceptor (Perkin Elmer, # 6765300) beads were added each to a final concentration of 1–4 µg per mL in a final reaction volume of 60 µL and incubated for 1 h at RT in the dark. AlphaScreen PPI signals were measured in a CLARIOstar reader (BMG Labtech GmbH).
Background: In Alpha technology, singlet oxygen from a donor bead excites a nearby acceptor bead.

Entries after “also recorded” stand apart in the source; their conditions may differ.

B1: R392A (protein, UniProt Q9Y4K3 1-522, looked up, variant R392A)
TNF receptor-associated …: MSLLNCENSCGSSQSESDCCVAMASSCSAVTKDDSVGGTASTGNLSSSFMEEIQGYDVEFDPPLESKYECPICLMALREAVQTPCGHRFCKACIIKSIRDAGHKCPVDNEILLENQLFPDNFAKREILSLMVKCPNEGCLHKMELRHLEDHQAHCEFALMDCPQCQRPFQKFHINIHILKDCPRRQVSCDNCAASMAFEDKEIHDQNCPLANVICEYCNTILIREQMPNHYDLDCPTAPIPCTFSTFGCHEKMQRNHLARHLQENTQSHMRMLAQAVHSLSVIPDSGYISEVRNFQETIHQLEGRLVRQDHQIRELTAKMETQSMYVSELKRTIRTLEDKVAEIEAQQCNGIYIWKIGNFGMHLKCQEEEKPVVIHSPGFYTGKPGYKLCMALHLQLPTAQRCANYISLFVHTMQGEYDSHLPWPFQGTIRLTILDQSEAPVRQNHEEIMDAKPELLAFQRPTIPRNPKGFGYVTFMHLEALRQRTFIKDDTLLVRCEVSTRFDMGSLRREGFQPRSTDAGV
As for B1, the “effect of TRAF6 mutation on binding to RANK (in words)” value was “do not bind to RANK; also recorded: prevented the interaction of TRAF6 with LMP1 and RANK”; the “TRAF6 binding to RANK (AlphaScreen), mean” value stood at 0.1. In addition, under “replicate 1”, the “TRAF6 binding to RANK (AlphaScreen)” value came out at 0.1. Further, the “TRAF6 binding to RANK (AlphaScreen)” value (replicate 2) is on record as 0.1. Moreover, the “TRAF6 binding to RANK (AlphaScreen)” value (replicate 3) came out at 0.1. Also, the “TRAF6 binding to RANK (AlphaScreen)” value (replicate 4) was 0.1.

B2: F471A (protein, UniProt Q9Y4K3 1-522, looked up, variant F471A)
TNF receptor-associated …: MSLLNCENSCGSSQSESDCCVAMASSCSAVTKDDSVGGTASTGNLSSSFMEEIQGYDVEFDPPLESKYECPICLMALREAVQTPCGHRFCKACIIKSIRDAGHKCPVDNEILLENQLFPDNFAKREILSLMVKCPNEGCLHKMELRHLEDHQAHCEFALMDCPQCQRPFQKFHINIHILKDCPRRQVSCDNCAASMAFEDKEIHDQNCPLANVICEYCNTILIREQMPNHYDLDCPTAPIPCTFSTFGCHEKMQRNHLARHLQENTQSHMRMLAQAVHSLSVIPDSGYISEVRNFQETIHQLEGRLVRQDHQIRELTAKMETQSMYVSELKRTIRTLEDKVAEIEAQQCNGIYIWKIGNFGMHLKCQEEEKPVVIHSPGFYTGKPGYKLCMRLHLQLPTAQRCANYISLFVHTMQGEYDSHLPWPFQGTIRLTILDQSEAPVRQNHEEIMDAKPELLAFQRPTIPRNPKGAGYVTFMHLEALRQRTFIKDDTLLVRCEVSTRFDMGSLRREGFQPRSTDAGV
For B2, the “effect of TRAF6 mutation on binding to RANK (in words)” value is on record as “do not interact” and the “TRAF6 binding to RANK (AlphaScreen), mean” value was 0.725. Also, the “TRAF6 binding to RANK (AlphaScreen)” value (replicate 1) stood at 0.2. The “TRAF6 binding to RANK (AlphaScreen)” value (replicate 2) was determined as 0.4. The “TRAF6 binding to RANK (AlphaScreen)” value (replicate 3) is on record as 0.2. In addition, for the setting “replicate 4”, the “TRAF6 binding to RANK (AlphaScreen)” value is recorded as 2.1.
